Measurements: article PMC4330345 (Nucleic Acids Research, 2015)
Residue numbers refer to the chain shown, from its start.

T1: HlyU_Vc wild type (Vibrio cholerae, UniProt P52695 1-108)
T1 sequence: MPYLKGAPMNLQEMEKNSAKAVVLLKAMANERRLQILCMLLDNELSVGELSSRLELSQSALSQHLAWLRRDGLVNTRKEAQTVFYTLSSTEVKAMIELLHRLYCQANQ

B1: HlyU of V. cholerae, wild type (natural protein)
chain: T1 sequence
notes: not shown: His6, N-terminal, cleaved
B2: O3 (dsDNA)
DNA 1: TTGGGGGGGGGGGGGGGACTAAATTAGTTCAAATT
DNA 2: AATTTGAACTAATTTAGTCCCCCCCCCCCCCCCAA
B3: O1 (dsDNA)
DNA 1: TTTATAAATTAATTCAGACTAAATTAGTTCAAATT
DNA 2: AATTTGAACTAATTTAGTCTGAATTAATTTATAAA
B4: O2 (dsDNA)
DNA 1: ATTAATCTTTAAATCAACTTTATAAATTAATTCAG
DNA 2: CTGAATTAATTTATAAAGTTGATTTAAAGATTAAT
B5: HlyU_Vc K26A (natural protein)
chain: T1 sequence with K26A
notes: source: E. coli BL21 (DE3), purified (Ni-NTA); not shown: His6, N-terminal, cleaved
B6: HlyU_Vc H64A (natural protein)
chain: T1 sequence with H64A
notes: as for B5
B7: HlyU_Vc L65A (natural protein)
chain: T1 sequence with L65A
notes: as for B5
B8: HlyU_Vc K78A (natural protein)
chain: T1 sequence with K78A
notes: as for B5
B9: HlyU_Vc W67A (natural protein)
chain: T1 sequence with W67A
notes: as for B5
B10: HlyU_Vc T90A (natural protein)
chain: T1 sequence with T90A
notes: as for B5
B11: HlyU_Vc E49A (natural protein)
chain: T1 sequence with E49A
notes: as for B5
B12: HlyU_Vc R69A (natural protein)
chain: T1 sequence with R69A
notes: as for B5
B13: HlyU_Vc R33A (natural protein)
chain: T1 sequence with R33A
notes: as for B5
B14: HlyU_Vc S62A (natural protein)
chain: T1 sequence with S62A
notes: as for B5
B15: HlyU_Vc Y85A (natural protein)
chain: T1 sequence with Y85A
notes: as for B5
B16: HlyU_Vc A66S (natural protein)
chain: T1 sequence with A66S
notes: as for B5
B17: HlyU_Vc L98D (natural protein)
chain: T1 sequence with L98D
notes: as for B5
B18: HlyU_Vc Q81A (natural protein)
chain: T1 sequence with Q81A
notes: as for B5
B19: HlyU_Vc N30A (natural protein)
chain: T1 sequence with N30A
notes: as for B5
B20: HlyU_Vc R32A (natural protein)
chain: T1 sequence with R32A
notes: as for B5
B21: HlyU_Vc Q63A (natural protein)
chain: T1 sequence with Q63A
notes: as for B5
B22: HlyU_Vc R70A (natural protein)
chain: T1 sequence with R70A
notes: as for B5

Biological target: the molecule itself
Assay: SEC
Details: not given

| Binder | stoichiometry N |
| --- | --- |
| B1 | 2 |

Biological target: T1, HlyU_Vc wild type
Assay: EMSA; EMSA: 1 nM probe, 1 mM Tris, 6 mM NaCl, 0.5 mM MgCl2, 0.01 mM EDTA, 0.1 mM CaCl2, 0.2% glycerol, 0.03 mg/ml salmon sperm DNA, 1 h, 4 C, pH not stated; footprint: ~10 nM DNA, 1 h, 4 C
Details: protein: recombinant; tags: N-terminal 6xHis removed with thrombin; chain copies: 2; label: radiolabel; blunt

| Binder | binding result |
| --- | --- |
| B2 | no binding |
| B3 | binds |
| B4 | no binding |

Biological target: the molecule itself
Assay: SEC; analytical gel filtration (AKTA prime Plus); 500 ug protein injected; 50 mM sodium phosphate, 200 mM sodium chloride, pH 6.8; molecular weight from marker proteins; self-association, dimer against monomer
Details: not given

| Binder | binding result |
| --- | --- |
| B5 | binds |
| B6 | binds |
| B7 | binds |
| B8 | binds |
| B9 | binds |
| B10 | binds |
| B11 | binds |
| B12 | binds |
| B13 | binds |
| B14 | binds |
| B15 | binds |
| B16 | binds |
| B17 | binds |
| B18 | binds |
| B19 | binds |
| B20 | binds |
| B21 | binds |
| B22 | binds |
